Assay results from patent publication US20150346208A1 (SPRING BIOSCIENCE, published 2015).

What was measured:
[1] = target: T1, human PD-L1 (Programmed death ligand-1) (human, UniProt Q9NZQ7 19-290); assay: IHC on FFPE placenta, 0.11-28 µg/ml
T1 construct: whole, on cells; Endogenous protein; For IHC it was in formalin-fixed, paraffin-embedded tissue sections; for the Western blot it was in SDS-PAGE-fractionated cell lysates (45-55 kDa band); also called B7-H1; PDCD1L1

[2] = target: T2, peptide immunogen CGIQDTNSKKQSDTHLEET (human PD-L1 aa 272-290) (human); assay: ELISA, immobilized peptide immunogen (human PD-L1 aa272-290)
T2 construct: Synthetic peptide, immobilized in the ELISA; also called immobilized peptide immunogen; 19-amino acid peptide
T2 peptide: CGIQDTNSKKQSDTHLEET
Procedure: ELISA studies were performed with the SP263 antibody to evaluate binding to the immobilized peptide immunogen (human PD-L1 aa272-290).

[3] = target: T1, human PD-L1 (Programmed death ligand-1); assay: IHC on FFPE placenta, 0.9 µg/ml
Procedure: Rabbit anti-human PD-L1 monoclonal antibodies SP263, J45H2L4 and J27H6L4 were applied onto formalin-fixed paraffin embedded (FFPE) tissue samples to assess the staining patterns of these antibodies. Tissue samples include placenta (positive control), stomach (negative control) and colon. Immunohistochemistry was performed on BenchMark Ultra (Ventana Medical System) using StdCC1 cell conditioning and standard Opt iView DAB detection protocol. Each primary antibody was incubated at 0.9 μg/ml for 16 min.

T1 sequence (Q9NZQ7 19-290): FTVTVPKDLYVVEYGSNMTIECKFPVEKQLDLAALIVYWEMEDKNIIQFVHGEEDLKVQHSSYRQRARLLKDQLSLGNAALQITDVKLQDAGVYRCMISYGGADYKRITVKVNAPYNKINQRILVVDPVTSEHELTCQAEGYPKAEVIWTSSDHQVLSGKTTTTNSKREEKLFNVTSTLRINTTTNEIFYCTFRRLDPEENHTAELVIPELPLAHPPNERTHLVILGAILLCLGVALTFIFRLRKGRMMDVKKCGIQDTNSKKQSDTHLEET

Binder | binding result [1] | EC50 [2] [nM] | binding result [3]
SP263 rabbit anti-human PD-L1 monoclonal antibody (antibody, V domains shown, the rabbit constant regions are not; also called SP263 anti-PD-L1 antibody) VH: QSLEESGGRLVTPGTPLTLTCTASGFSLSNHAISWVRQAPGKGLEWIGTINSDTHTYYATWPKGRFTISKTSSTTVDLKMTSPTTEDTATYFCARRIFSSSNIWGPGTLVTVSS VL: AIVMTQTSSPVSAVVGGTVAINCQASQSIYNNNWLSWFQQKPGQPPKLLIYLASTLASGVPSRFKGSGSGTQFTLTISDVVCDDAATYYCIGGESSNNDGIAFGGGTEVVVK | binds | 0.015 | 
J45H2L4 rabbit anti-human PD-L1 monoclonal antibody (antibody, V domains shown, the rabbit constant regions are not; also called anti-PD-L1 antibody clone J45H2L4) VH: QSLEESGGRLVTPGTPLTLTCTASGFSLSSNAISWVRQAPGKGLEWIGTINSDSHIYSATWAKGRFTISKTSTAVDLKMTSPTTEDTATYFCAGRLFSSTNIWGPGTLVTVSS VL: VMTQTSSPVSAAVGGTVTINCQASQSIYKDNWLSWFQQKPGQPPKLLIYLASTLASGVPSRFKGSGSGTQFTLTISDVVCDDAATYYCLGGESSSDDGIAFGGGTEVVVK |  |  | binds
